{"source": "patent US11419948B2", "about": "“Functionalized microgels with fibrin binding elements” (Georgia Tech Research Corporation, priority 2013, dated 2022)", "molecules": {"B1": {"name": "PLPs: ultra-low crosslinked pNIPAm-AAc microgels conjugated to fibrin-specific sdFv H6 (conjugate)", "VH": "QVQLLESGGGLVQPGGSLRLSCAASGDRFTHNDMGWVRQAPGKGLEWVSTIPTTDGSTYYADSVKGRFTISRDNSKSTLYLQMNSLRAEDTAVYYCATGYMWKAPAYVKYWGQGTLVTVSSAAAEQKLISEEDLNSAAHYTDIG"}}, "molecular_target": "T1, fibrin (Homo sapiens, UniProt P02671+P02675+P02679)", "T1 sequence (P02671 36-866 limits assumed)": "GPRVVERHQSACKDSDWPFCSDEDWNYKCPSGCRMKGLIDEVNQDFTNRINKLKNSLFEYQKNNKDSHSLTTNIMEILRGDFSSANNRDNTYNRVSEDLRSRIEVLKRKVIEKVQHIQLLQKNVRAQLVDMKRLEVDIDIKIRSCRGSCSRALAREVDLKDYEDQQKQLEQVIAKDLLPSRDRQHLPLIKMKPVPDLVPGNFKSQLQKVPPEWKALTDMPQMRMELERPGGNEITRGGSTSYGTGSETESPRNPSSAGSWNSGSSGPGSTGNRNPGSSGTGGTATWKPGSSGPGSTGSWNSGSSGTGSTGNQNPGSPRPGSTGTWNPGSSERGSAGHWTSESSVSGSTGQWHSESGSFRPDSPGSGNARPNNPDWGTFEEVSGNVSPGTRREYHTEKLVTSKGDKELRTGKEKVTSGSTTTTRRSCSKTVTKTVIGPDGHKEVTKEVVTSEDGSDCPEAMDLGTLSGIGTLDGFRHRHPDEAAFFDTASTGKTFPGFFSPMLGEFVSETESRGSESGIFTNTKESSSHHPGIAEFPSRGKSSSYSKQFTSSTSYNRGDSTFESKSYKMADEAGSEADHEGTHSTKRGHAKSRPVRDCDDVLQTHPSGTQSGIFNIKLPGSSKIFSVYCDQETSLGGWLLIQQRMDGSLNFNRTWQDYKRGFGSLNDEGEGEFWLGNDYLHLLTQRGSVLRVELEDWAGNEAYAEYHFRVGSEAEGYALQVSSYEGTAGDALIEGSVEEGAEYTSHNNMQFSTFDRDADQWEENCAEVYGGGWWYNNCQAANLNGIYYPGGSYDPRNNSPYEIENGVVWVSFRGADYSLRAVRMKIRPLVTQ", "T1 sequence (P02675 45-491 limits assumed)": "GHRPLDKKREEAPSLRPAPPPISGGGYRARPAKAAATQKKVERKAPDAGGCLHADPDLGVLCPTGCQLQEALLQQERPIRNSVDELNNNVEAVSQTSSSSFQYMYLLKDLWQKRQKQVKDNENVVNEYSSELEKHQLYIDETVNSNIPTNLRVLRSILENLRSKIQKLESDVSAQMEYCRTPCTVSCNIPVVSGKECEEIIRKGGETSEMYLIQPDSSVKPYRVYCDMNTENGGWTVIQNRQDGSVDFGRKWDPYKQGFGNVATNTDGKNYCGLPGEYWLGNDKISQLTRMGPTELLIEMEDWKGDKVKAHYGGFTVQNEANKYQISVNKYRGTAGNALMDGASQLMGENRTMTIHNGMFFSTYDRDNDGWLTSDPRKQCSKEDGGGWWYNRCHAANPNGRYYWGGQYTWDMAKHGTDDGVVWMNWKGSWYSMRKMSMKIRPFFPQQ", "T1 sequence (P02679 27-453)": "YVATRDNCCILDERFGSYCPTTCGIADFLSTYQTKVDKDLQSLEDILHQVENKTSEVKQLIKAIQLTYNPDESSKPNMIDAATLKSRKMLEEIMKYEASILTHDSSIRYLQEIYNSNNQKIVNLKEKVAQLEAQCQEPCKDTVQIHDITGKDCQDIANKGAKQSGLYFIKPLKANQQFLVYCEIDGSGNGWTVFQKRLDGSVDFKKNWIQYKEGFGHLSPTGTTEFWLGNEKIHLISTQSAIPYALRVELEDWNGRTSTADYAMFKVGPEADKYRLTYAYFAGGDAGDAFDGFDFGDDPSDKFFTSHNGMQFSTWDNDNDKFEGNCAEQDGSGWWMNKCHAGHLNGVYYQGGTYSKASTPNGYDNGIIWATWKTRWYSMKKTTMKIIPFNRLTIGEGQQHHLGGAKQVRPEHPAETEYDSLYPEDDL", "assay": "Interferometry (Fortébio Blitz) binding of sdFv-microgels to fibrin layer", "conditions": "several concentrations", "procedure": "Ultralow crosslinked (ULC) microgels (microgels) with highly deformable, dendritic architecture were prepared using standard precipitation polymerization techniques previously described, Clemetson, K. J., Thrombosis Research, 129:220-224 (2012). A 95% pNIPAm/5% AAc composition (poly(N-isopropylacrylamide-co-acrylic acid) was utilized for microgel synthesis which results in microscaffolds ˜1-μm diameter in the swollen state. Co-polymerization with acrylic acid was utilized to allow for carboxylic acid chemoligation sites for sdFv attachment, Fries, et al., British Journal of Anesthesia, 105:116-121 (2010); Granville-Chapman, et al., Injury, 42:447-459 (2011). Following synthesis, microgels were purified using ultracentrifugation and conjugated to fibrin specific sdFvs using standard EDC/NHS chemistry. For confocal fluorescence microscopy experiments, sdFvs were also labeled with maleimide-Alexa Fluor-488 following conjugation to the microgels. To determine basic microgels properties, the particles were characterized using dynamic light scattering to determine the hydrodynamic radius and atomic and force microscopy imaging to characterize morphology. Finally, to ensure that microgels coupled to fibrin-specific sdFvs retained fibrin-binding capabilities, binding of sdFv-microgels to fibrin was determined through interferometry analysis utilizing the Fortébio Blitz system. […]", "data": [{"molecule": "B1", "values": [{"measurement": "binding of sdFv-microgels to the fibrin layer", "value": "increased binding to the fibrin layer with increasing concentrations"}]}]}
